The results in this text go back to article PMC8438204 (2021).

B1: HigB2 (protein)
chain: MKSVFVESTIFEKYRDEYLSDEEYRLFQAELMLNPKLGDVIQGTGGLRKIRVASKGKGKRGGSRIIYYFLDEKRRFYLLTIYGKNEMSDLNANQRKQLMAFMEAWRNEQS
B2: HigA2 (protein)
chain: MSNRDLFAELSSALVEAKQHSEGKLTLKTHHVNDVGELNISPDEIVSIREQFNMSRGVFARLLHTSSRTLENWEQGRSVPNGQAVTLLKLVQRHPETLSHIAEL

Holding throughout (assay): competition
One assay concerns the target HigA2 3-23 peptide 3-23 (Vibrio cholerae, UniProt Q9KMA5).
The target in the next assay is HigA2 3-33 peptide 3-33 (Vibrio cholerae, UniProt Q9KMA5).
The assay “HigB2” concerns the target B1.

As for B1, the results for the dissociation constant Kd with HigA2 3-23 peptide 3-23 and with HigA2 3-33 peptide 3-33 were 0.003 nM and roughly 0.127 nM, respectively.
Take B2: the Kd (as a rule, a measure of binding affinity in units of concentration) in the assay with HigB2 turned out to be 0.016 nM.
